# Results from article PMC7763554, “The Two-Component System CopRS Maintains Subfemtomolar Levels of Free Copper in the Periplasm of Pseudomonas aeruginosa Using a Phosphatase-Based Mechanism” (mSphere, 2020).
# B1: His-tagged CopS(34-151), periplasmic copper binding loop (sensor domain) of Pseudomonas aeruginosa CopS (domain or fragment, UniProt Q9I033 34-151, looked up)
# chain: FSRAIDEHFVELDHMAMSAKLAVFRDELRGLGSEQQMRRREAELLRELARHPDLGLRLNGPDGNLWFERLPQPAHPGLPANRELGAPLEPGNDASPRLTVILDISHHQHFLQRMRQLI
# notes: CopS, sensor histidine kinase of the two-component system CopRS, Pseudomonas aeruginosa PAO1; periplasmic sensor domain, residues 34-151, amplified from genomic DNA; The His6 tag is joined by a TEV cleavage site, and the tag was not cleaved; The expected monomer mass is printed as 19 kDa, which is more than residues 34-151 plus the tag would give, so the pBAD-topo vector may add residues …
# Biological target: the molecule itself
# Assay: SDS-PAGE; 10 ug of purified protein on 8 to 16% gradient SDS-PAGE, Coomassie blue G250; monomer and dimer bands with expected masses of 19 and 38 kDa
protein,measurement,value
B1,stoichiometry N,2
